The target in test [1] is T1, human TNFR1 on the cellular surface of HeLa, HT1080 and Kym-1 cells (human, UniProt P19438 30-455).
T1 sequence: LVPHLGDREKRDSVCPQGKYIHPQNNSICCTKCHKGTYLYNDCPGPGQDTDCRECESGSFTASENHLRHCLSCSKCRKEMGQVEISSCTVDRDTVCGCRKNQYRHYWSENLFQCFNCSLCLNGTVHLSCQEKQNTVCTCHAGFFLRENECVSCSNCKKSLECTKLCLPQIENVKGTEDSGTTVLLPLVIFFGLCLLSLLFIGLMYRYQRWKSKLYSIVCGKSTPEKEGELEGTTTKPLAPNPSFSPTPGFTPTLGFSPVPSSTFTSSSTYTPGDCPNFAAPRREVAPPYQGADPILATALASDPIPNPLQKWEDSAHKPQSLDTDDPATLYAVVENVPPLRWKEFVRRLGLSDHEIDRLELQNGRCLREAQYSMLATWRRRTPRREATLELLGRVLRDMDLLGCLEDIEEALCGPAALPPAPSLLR
The test is described as follows: cell-based or functional assay.

A further test has as its target T2, complement protein C1q (UniProt P02745 23-245; P02746 28-253; P02747 29-245).
T2 construct: also called C1q Complement protein
The test is described as follows: ELISA, antibody immobilized, C1q added, n=2; concentration not shown.

The target of test [2] is T3, Recombinant human TNFR1-Fc fusion protein (human, UniProt P19438 30-211, limits assumed).
T3 construct: not shown: Fc part
T3 sequence: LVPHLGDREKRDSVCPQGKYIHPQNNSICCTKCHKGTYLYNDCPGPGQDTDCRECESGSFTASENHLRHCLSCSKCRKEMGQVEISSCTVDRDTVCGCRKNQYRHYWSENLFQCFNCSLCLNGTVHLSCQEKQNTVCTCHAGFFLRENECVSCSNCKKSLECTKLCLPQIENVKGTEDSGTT
Nature of the test: ELISA under equilibrium conditions, TNFR1-Fc coated; ELISA under equilibrium conditions. The method, then:
(§1) Microtiter plates were coated with 100 μl of TNFR1-Fc fusion protein (1 μg/ml in PBS) and incubated at 4° C. overnight. The residual binding sites were blocked with 2% MPBS (skim milk in PBS, 200 μl per well) at room temperature for 2 hours and subsequently washed twice with PBS. 100 μl of the samples diluted in 2% MPBS were incubated at room temperature for 1 hour prior to the last incubation step with 100 μl of the HRP conjugated detection antibodies in 2% MPBS. Bound protein was detected with 100 μl TMB substrate solution (1 mg/ml 3,3′,5,5′-Tetramethylbenzidine[TMB], 0.006% H₂O₂ in 100 mM Na-acetate buffer, pH 6 at RT), the HRP-reaction was stopped by the addition of 50 μl 1 M H₂SO₄ and the absorption at the wavelength of 450 nm was measured using the Infinite microtiter plate reader (TECAN, Maennedorf, Switzerland). Between each incubation step and in advance of the detection, the plates were washed twice times with PBST and twice with PBS.

The target of test [3] is T3, Recombinant human TNFR1-Fc fusion …. The test is described as follows: ELISA under equilibrium conditions, TNFR1-Fc coated. The method, then: as §1
In general terms: An ELISA detects its analyte on a solid surface through an enzyme-linked reagent.

Another test has as its target T4, human Fcγ receptor IIb (human, UniProt P31994 46-217, limits assumed).
T4 construct: also called FcγRIIb
T4 sequence (looked up): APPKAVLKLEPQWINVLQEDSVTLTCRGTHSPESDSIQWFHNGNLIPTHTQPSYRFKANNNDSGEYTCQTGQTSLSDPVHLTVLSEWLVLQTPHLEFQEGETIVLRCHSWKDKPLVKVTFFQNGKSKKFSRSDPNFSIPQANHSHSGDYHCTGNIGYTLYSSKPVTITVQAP
Nature of the test: ELISA, antibody immobilized, human FcγRIIb added, n=2; concentration not shown.

The target in test [4] is T3, Recombinant human TNFR1-Fc fusion …. The test is described as follows: QCM at 37 C, TNFR1-Fc immobilized at ~94 ΔHz, 1:1 binding algorithm; quartz crystal microbalance, TNFR1 immobilized at ~94 ΔHz. The method, then:
Real-time binding dynamics in protein-protein interactions were determined by quartz crystal microbalance measurements (Cell-200 C-Fast, Attana, Stockholm, Sweden). One of the binding partners (TNFR1-Fc) was chemically immobilized on a LNB Carboxyl Sensor Chip (3623-3103, Attana, Stockholm, Sweden) according to the manufacturer's protocol at a moderate density of ˜94 ΔHz. Binding experiments were performed with samples (analyte) diluted in PBST (PBS, 0.1% Tween 20) between 128 nM and 4 nM (1:2 dilution steps) at pH 7.4 with a flow rate of 25 μl/min at 37° C. The chip was regenerated with 25 μl 20 mM glycine, pH 2.0. Every third measurement, an injection of running buffer was measured which was subtracted from the binding curve prior to data analysis. Data were collected using the software provided by Attana and analyzed by Attaché Office Evaluation software (Attana, Stockholm, Sweden) and TraceDrawe (ridgview instruments, Vange, Sweden).

In the next test the target is T5, human Fcγ receptor Ia (human, UniProt P12314 16-288, limits assumed).
T5 construct: also called human FcγRI; FcγRI
T5 sequence (P12314 16-288 limits assumed): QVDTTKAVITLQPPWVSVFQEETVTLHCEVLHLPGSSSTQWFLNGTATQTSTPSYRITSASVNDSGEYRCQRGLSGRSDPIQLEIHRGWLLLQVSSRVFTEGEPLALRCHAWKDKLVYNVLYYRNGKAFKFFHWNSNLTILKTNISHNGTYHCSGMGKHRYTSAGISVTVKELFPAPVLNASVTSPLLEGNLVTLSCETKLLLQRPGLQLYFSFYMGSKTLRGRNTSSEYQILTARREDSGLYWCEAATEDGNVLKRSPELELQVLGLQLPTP
The test is described as follows: ELISA, antibody immobilized, human FcγRI added, n=2; concentration not shown.

The target in test [5] is T1, human TNFR1 on the cellular surface of …. The test is described as follows: cell-based or functional assay. This is another data set of the same source.
For a further test, the target named is T6, human Fcγ receptor IIIa (human, UniProt P08637 17-208, limits assumed).
T6 construct: also called human FcγRIII; FcγRIII
T6 sequence (P08637 17-208 limits assumed): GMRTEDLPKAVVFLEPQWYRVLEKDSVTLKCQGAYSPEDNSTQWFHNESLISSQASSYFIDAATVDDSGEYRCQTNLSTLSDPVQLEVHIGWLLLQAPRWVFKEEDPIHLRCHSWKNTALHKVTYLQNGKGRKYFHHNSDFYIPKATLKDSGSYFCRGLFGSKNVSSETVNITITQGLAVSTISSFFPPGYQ
The test is described as follows: ELISA, antibody immobilized, human FcγRIII added, n=2; concentration not shown.

T2 sequence (P02745 23-245 limits assumed, chain 1 of 3): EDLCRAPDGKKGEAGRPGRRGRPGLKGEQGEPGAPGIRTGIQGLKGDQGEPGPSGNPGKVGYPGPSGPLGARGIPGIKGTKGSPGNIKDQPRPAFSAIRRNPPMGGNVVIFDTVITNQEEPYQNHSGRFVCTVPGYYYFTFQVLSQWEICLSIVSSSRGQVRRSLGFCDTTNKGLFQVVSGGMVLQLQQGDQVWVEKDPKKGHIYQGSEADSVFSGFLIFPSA
T2 sequence (P02746 28-253 limits assumed, chain 2 of 3): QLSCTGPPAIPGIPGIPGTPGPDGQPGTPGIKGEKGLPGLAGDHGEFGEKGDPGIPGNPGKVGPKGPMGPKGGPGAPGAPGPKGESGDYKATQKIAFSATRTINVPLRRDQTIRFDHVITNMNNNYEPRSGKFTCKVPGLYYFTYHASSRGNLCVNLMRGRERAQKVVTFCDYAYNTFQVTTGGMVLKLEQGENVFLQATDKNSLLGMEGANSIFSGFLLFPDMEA
T2 sequence (P02747 29-245 limits assumed, chain 3 of 3): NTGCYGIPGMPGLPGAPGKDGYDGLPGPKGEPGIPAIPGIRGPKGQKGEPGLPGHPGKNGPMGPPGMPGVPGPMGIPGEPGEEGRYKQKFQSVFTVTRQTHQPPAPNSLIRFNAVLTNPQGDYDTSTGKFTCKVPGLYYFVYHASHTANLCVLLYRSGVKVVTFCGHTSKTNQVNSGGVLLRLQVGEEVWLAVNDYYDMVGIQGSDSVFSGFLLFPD

B1: Fab 13.7 (Fab, V domains shown)
VH: HVQLVQSGAEVKKPGSSVKVSCKASGYTFTDFYINWVRQAPGQGLEWIGEIVPSQGEAKYNDKFKARVTITADKSTSTAYMELSSLRSEDTAVYYCARWDFLDYWGQGTTVTVSS
VL: DVQMTQSPSSLSASVGDRVTITCRSSQSLLHSNGNTYLHWYQQKPGKAPKLLIYTVSNRFSGVPSRFSGSGSGTDFTLTISSLQPEDFATYYCSQSTHVPYTFGGGTKVEIKR
Turning to B1, in [1], the “IC50, Cell death induction [nM] (Kym-1 cells, TNF-induced)” value was determined as 9.5 nM; the “IC50, IL-6 [nM] (IL-6 release from HeLa cells, 0.1 nM TNF)” value was 37.1 nM; the “IC50, IL-8 [nM] (IL-8 release from HT1080 cells, 0.1 nM TNF)” value is 12.7 nM.

B2: Atrosimab (antibody)
heavy: HVQLVQSGAEVKKPGSSVKVSCKASGYTFTDFYINWVRQAPGQGLEWIGEIVPSQGEAKYNDKFKARVTITADKSTSTAYMELSSLRSEDTAVYYCARWDFLDYWGQGTTVTVSSGTGGGSGPSVFLFPPKPKDTLMISRTPEVTCVVVDVSHEDPEVKFNWYVDGVEVHNAKTKPREEQYNSTYRVVSVLTVLHQDWLNGKEYKCKVSNKGLPSSIEKTISKAKGQPREPSVFIFPPSDEQLKSGTASVVCLVNNFYPRDIAVEWEVDNALQSGNSQESVTEQDSKDSTYSLSSTLTLSKADYEKHKVYSCSVMHEALHNHYTQKSFNRGEC
light: DVQMTQSPSSLSASVGDRVTITCRSSQSLLHSNGNTYLHWYQQKPGKAPKLLIYTVSNRFSGVPSRFSGSGSGTDFTLTISSLQPEDFATYYCSQSTHVPYTFGGGTKVEIKGTGGGSGPSVFLFPPKPKDTLMISRTPEVTCVVVDVSHEDPEVKFNWYVDGVEVHNAKTKPREEQYNSTYRVVSVLTVLHQDWLNGKEYKCKVSNKGLPSSIEKTISKAKGQPREPSVFPLAPSSKSTSGGTAALGCLVKDYFPSDIAVEWESGALTSGVHTFPAVLQSSGLYSLSSVVTVPSSSLGTQTYSCSVMHEALHNHYTQKSVEPKSC
notes: The Fc is modified to reduce effector functions; Produced in CHO cells; also called Fv13.7-Fc1k; VHkC/VL1C heterodimer
By EC50 is commonly meant the concentration needed to bring the measured effect to its halfway point. By Kd is commonly meant the concentration at which binding is half-saturated. In general, koff refers to a measure of how fast the partners let go of each other. As usually defined, the kon is the second-order rate constant of association. Regarding B2, the binding result in the test with complement protein C1q is given as “no binding”. Further, the EC50 in test [2] is 0.4 nM. In test [3], the “fold reduction in binding activity compared to ATROSAB” value worked out at 4 fold and the “fold reduction in binding activity compared to Fab 13.7” value came out at 2 fold. In the test with human Fcγ receptor IIb, the binding result was “no binding”. Moreover, in [4], the Kd worked out at 2.7 nM, the dissociation rate constant (koff) was found to be 0.00098 s⁻¹ and the on-rate constant (kon) is 370000 M⁻¹ s⁻¹. Further, the binding result with human Fcγ receptor Ia was “no binding”. Also, in test [5], the “fold more potent inhibition compared to ATROSAB, IL-6 release assay” value is 3 fold; the “fold more potent inhibition compared to ATROSAB, IL-8 release assay” value is 3.5 fold; the “fold more potent inhibition compared to ATROSAB, cell death induction assay” value was determined as 4 fold. For the same molecule, in [1], the “IC50, Cell death induction [nM] (Kym-1 cells, TNF-induced)” value was determined as 16.2 nM; the “IC50, IL-6 [nM] (IL-6 release from HeLa cells, 0.1 nM TNF)” value turned out to be 54.5 nM; the “IC50, IL-8 [nM] (IL-8 release from HT1080 cells, 0.1 nM TNF)” value is 24.2 nM. The binding result in the test with human Fcγ receptor IIIa is given as “no binding”.

For the origin of these results see US20200299396A1 (BALIOPHARMA, published 2020).
